Measurements from the supplement of paper PMC10724198.
± gives the standard deviation of the averaged measurements.
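Note: PSI is a weighted mean of sequencing reads over stability bins, variants kept only with over 10 reads, mCherry proximal and sfGFP distal, peptide attached via GGGS linker.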

These sequences were tested on Saccharomyces cerevisiae (assay: protein stability index of tFT-peptide fusion (C-terminal peptide) (PSI (0-1 scale)); higher = more stable (slower turnover)). Settings: genetic background: wild type; temperature: 30 C.
Protocol: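 Multiplexed protein stability (MPS) profiling in S. cerevisiae. Random 12-aa peptides (tFT-X12 library) are fused to the C-terminus of a sfGFP-mCherry tandem fluorescent timer, after mCherry and a GGGS linker. Cells are FACS-sorted into 8 mCherry/sfGFP bins and deep-sequenced. The protein stability index (PSI) is the read-weighted bin average, scaled from 0 (unstable) to 1 (stable). Only peptides with >10 reads are reported; cells were grown at 30 °C in SC-His with glucose.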
DMCLSVIEQTAC was tested, and the protein stability index was 0.6123 ± 0.0028. With DMSQKSENKKLI the protein stability index was 0.689 ± 0.011. For DPLLYLCLGSQC, the protein stability index was 0.676 ± 0.017. With DPLVDLCGPLSL the protein stability index was 0.717 ± 0.077. With DPPDPASIHLSF the protein stability index was 0.752 ± 0.0096. Work on DPRHDNRYPRVR yielded a protein stability index of 0.617 ± 0.16. Work on DPTWIKKRPSIP yielded a protein stability index of 0.666 ± 0.044. With DPVVSQLSSVPA the protein stability index was 0.656 ± 0.041. DQAWYFVRLAGD was tested, and the protein stability index was 0.766 ± 0.2. With DQIYEKQKIPST the protein stability index was 0.621 ± 0.0079. DQLGARSGELLR was tested, and the protein stability index was 0.697 ± 0.063. DREGIELHKNKD showed a protein stability index of 0.658 ± 0.0072. DREVGQGRLTEE was tested, and the protein stability index was 0.6359 ± 0.0018. For DRGFSVGGGWGW, the protein stability index was 0.676 ± 0.066. For DRGSLVASGGGG, the protein stability index was 0.713 ± 0.015. DRKWSPGSGVVD was tested, and the protein stability index was 0.696 ± 0.051. For DRLGGVSQVNIQ, the protein stability index was 0.751 ± 0.042. DRPACVAHKLFS showed a protein stability index of 0.677 ± 0.0073. DRRARTDEKKKK showed a protein stability index of 0.646 ± 0.01. With DRSLRLGSLTSG the protein stability index was 0.6 ± 0.017. With DRWGGRGDYRCI the protein stability index was 0.72 ± 0.019. In the case of DSAVTPPTTCLP, the protein stability index is reported as 0.719 ± 0.028. DSCQALIWLVFT was tested, and the protein stability index was 0.586 ± 0.021. For DSETLLSKEWKQ, the protein stability index was 0.651 ± 0.11. For DSFLLSSKICWT, the protein stability index was 0.745 ± 0.0069. DSFSEFDSSPVI showed a protein stability index of 0.727 ± 0.03. Work on DSLTNAELVFAC yielded a protein stability index of 0.607 ± 0.0068. For DSMGKVLLTCAN, the protein stability index was 0.581 ± 0.0094. DSPLAGALTEVD gave a protein stability index of 0.715 ± 0.04. With DSPPRATFSAPR the protein stability index was 0.69 ± 0.036. Work on DSPTGLKFTQSL yielded a protein stability index of 0.634 ± 0.1. In the case of DSRPLASAVRLS, the protein stability index is reported as 0.681 ± 0.017. Sequence DSSFLPHLRLAP has a protein stability index of 0.689 ± 0.053. DSSRANRCISDR showed a protein stability index of 0.654 ± 0.046. In the case of DTCWHELILAFS, the protein stability index is reported as 0.592 ± 0.087. DTEYVFLYSSQE gave a protein stability index of 0.7029 ± 0.0051. DTFVFSWGVGWG gave a protein stability index of 0.76 ± 0.041. Sequence DTGLGSVVFVVF has a protein stability index of 0.688 ± 0.036. Sequence DTLFNRFLHTSI has a protein stability index of 0.69 ± 0.046. DVAPPFLSFFVV gave a protein stability index of 0.62 ± 0.011. Work on DVFVFHVLKKYP yielded a protein stability index of 0.654 ± 0.025. With DVLDCTLVEQGA the protein stability index was 0.68 ± 0.035. With DVRPVWGMAGSE the protein stability index was 0.742 ± 0.12. Work on DVVFVARGRAND yielded a protein stability index of 0.7002 ± 0.0037. For DWGRRGGALAVI, the protein stability index was 0.641 ± 0.012. For DWLAFSYYFSVV, the protein stability index was 0.599 ± 0.041. EAEKTERCVIKG was tested, and the protein stability index was 0.645 ± 0.027. For EAGGRWEVSCQA, the protein stability index was 0.6133 ± 0.0017. In the case of EAKKKRIDKKYE, the protein stability index is reported as 0.776 ± 0.068. Sequence EALLWWGAWGVV has a protein stability index of 0.769 ± 0.02. With EARFLWLTFLFG the protein stability index was 0.546 ± 0.068. EARGPGPVGGGT was tested, and the protein stability index was 0.702 ± 0.085. For EAVVVLVSRFGL, the protein stability index was 0.695 ± 0.044. For ECFRWQRRLHYD, the protein stability index was 0.533 ± 0.024. With ECSGGGCGQRVG the protein stability index was 0.733 ± 0.056. Sequence EDACARFVRLFL has a protein stability index of 0.678 ± 0.051. EDCICPLNWFTA was tested, and the protein stability index was 0.711 ± 0.013. In the case of EDIIRPWSMFQE, the protein stability index is reported as 0.718 ± 0.043. Work on EDKKKKTKANDT yielded a protein stability index of 0.669 ± 0.028. EDLFELPNSNFS was tested, and the protein stability index was 0.73653 ± 0.00022. For EEKQLNKIKRKI, the protein stability index was 0.662 ± 0.059. For EEKRPWRRELLS, the protein stability index was 0.562 ± 0.025. In the case of EEMTVKKERKRI, the protein stability index is reported as 0.641 ± 0.051. EENLLYLLYVEC showed a protein stability index of 0.544 ± 0.016. EERELGVVWGEV gave a protein stability index of 0.702 ± 0.024. With EERENKKKLDQT the protein stability index was 0.659 ± 0.029. In the case of EETGWGVVWVVR, the protein stability index is reported as 0.703 ± 0.037. EFFSFPLTPYAL showed a protein stability index of 0.818 ± 0.0035. Work on EFKGRHEETTKS yielded a protein stability index of 0.72 ± 0.08. Work on EFPSGCSSVIVA yielded a protein stability index of 0.655 ± 0.049. In the case of EFVGKDRWVGGL, the protein stability index is reported as 0.699 ± 0.053. With EFVGSCPLCNTF the protein stability index was 0.622 ± 0.015. With EGAGGVEGAAWG the protein stability index was 0.7 ± 0.018. For EGASLRWARLRI, the protein stability index was 0.679 ± 0.037. In the case of EGDGVGCWWELW, the protein stability index is reported as 0.683 ± 0.033. EGDRWAGEVVRG showed a protein stability index of 0.705 ± 0.011. EGEVAGRWCGRG was tested, and the protein stability index was 0.69 ± 0.013. With EGGIKGKKVRTW the protein stability index was 0.66 ± 0.0087. EGGKRGGTPITK gave a protein stability index of 0.654 ± 0.025. Sequence EGGRRHSVGEQE has a protein stability index of 0.679 ± 0.01. For EGGWRYNRNGPN, the protein stability index was 0.687 ± 0.025. Work on EGHSPVQNVIEQ yielded a protein stability index of 0.698 ± 0.013. Work on EGHTRLPSPSPS yielded a protein stability index of 0.677 ± 0.009. EGIYLTVGTVDQ was tested, and the protein stability index was 0.707 ± 0.049. For EGRGKGKKKKTH, the protein stability index was 0.7 ± 0.036. Work on EGRMEAGVEGNS yielded a protein stability index of 0.657 ± 0.053. Sequence EGRPEERETTGH has a protein stability index of 0.587 ± 0.057. For EGTASGSSVRLE, the protein stability index was 0.693 ± 0.049. For EGYEATYLGVFV, the protein stability index was 0.706 ± 0.031. Work on EGYTPETPCYQK yielded a protein stability index of 0.688 ± 0.029. In the case of EHGEFLEGARGV, the protein stability index is reported as 0.645 ± 0.0075. For EHKRQRPVTRLP, the protein stability index was 0.672 ± 0.016. EIGSWKTISILV gave a protein stability index of 0.487 ± 0.024. Sequence EIKEEKEHRNQE has a protein stability index of 0.696 ± 0.052. EINSIEQESGTT showed a protein stability index of 0.677 ± 0.019. For EIRGGDMGEWRE, the protein stability index was 0.715 ± 0.027. Work on EISPQGAKWQEG yielded a protein stability index of 0.655 ± 0.048. EKCDYVIPVGLL showed a protein stability index of 0.702 ± 0.035. EKCHVTVVNEMR was tested, and the protein stability index was 0.643 ± 0.074. EKEWKRGTRKLD gave a protein stability index of 0.702 ± 0.085. EKIRSNIIKLEE gave a protein stability index of 0.64 ± 0.097. EKKEINKIKNQN showed a protein stability index of 0.662 ± 0.028. EKKEVSLVKKGR showed a protein stability index of 0.695 ± 0.039. EKKHNKKEVIKK showed a protein stability index of 0.699 ± 0.009. In the case of EKKKKTIRKRMT, the protein stability index is reported as 0.6691 ± 0.0018. With EKKKQKDKKKKN the protein stability index was 0.705 ± 0.0078. Work on EKKRRKKGEKRR yielded a protein stability index of 0.712 ± 0.17. For EKLEGRKIIKKK, the protein stability index was 0.6927 ± 0.006. With EKNEREEAESGG the protein stability index was 0.714 ± 0.038. Sequence EKNKKDKNIIIG has a protein stability index of 0.681 ± 0.04. Sequence EKNKKKIERSTM has a protein stability index of 0.684 ± 0.012. Work on EKRRRRRQEAER yielded a protein stability index of 0.608 ± 0.03. Work on EKSPDYVFRWFR yielded a protein stability index of 0.745 ± 0.044. EKTNQPFHTLHA was tested, and the protein stability index was 0.673 ± 0.011. EKVGAGVRLAWN showed a protein stability index of 0.695 ± 0.003. ELCPFLPLFLTY gave a protein stability index of 0.551 ± 0.03. Sequence ELEIRSLCPDVV has a protein stability index of 0.694 ± 0.024. With ELVYVFLGNLPP the protein stability index was 0.632 ± 0.034. ELWRAGEVRGGK was tested, and the protein stability index was 0.713 ± 0.035. For EMGGLKACRGVG, the protein stability index was 0.56565 ± 0.00029. EMNKGKREKKGE was tested, and the protein stability index was 0.684 ± 0.084. EMYEKLKSYIVK was tested, and the protein stability index was 0.685 ± 0.013. With ENDKPITRKETQ the protein stability index was 0.605 ± 0.07. For ENPVVRSGAVGS, the protein stability index was 0.698 ± 0.031. With EPAWVNDQKERS the protein stability index was 0.832 ± 0.029. EPGFWGGRGGRA was tested, and the protein stability index was 0.661 ± 0.01. EPLGSGLQCTAG was tested, and the protein stability index was 0.731 ± 0.005. EPRPTPLSTPRH gave a protein stability index of 0.671 ± 0.094. Work on EQRLQRATELGR yielded a protein stability index of 0.52028 ± 0.00016. EQRQVQVTWRQD showed a protein stability index of 0.66 ± 0.055. With EQTIGDRVPGKG the protein stability index was 0.658 ± 0.051. EQVRVDETTGRR gave a protein stability index of 0.722 ± 0.025. Sequence ERARSRGGGGCV has a protein stability index of 0.632 ± 0.046. With ERCQGGSGVLIR the protein stability index was 0.638 ± 0.1. With ERDDRSFEWPRQ the protein stability index was 0.69 ± 0.025. ERGKGSRVGGST showed a protein stability index of 0.643 ± 0.1. In the case of ERGREVVSRGVQ, the protein stability index is reported as 0.724 ± 0.014. ERKESKSRKVER gave a protein stability index of 0.726 ± 0.081. In the case of ERKKIKDKIKKN, the protein stability index is reported as 0.702 ± 0.051. ERKQKKKTKEKY gave a protein stability index of 0.682 ± 0.026. With ERKQRKREQRDR the protein stability index was 0.6609 ± 0.0038. ERLACRFRTVVM was tested, and the protein stability index was 0.595 ± 0.053. Sequence ERNDLGNRLSMD has a protein stability index of 0.654 ± 0.02. ERRGAAGAGSTR was tested, and the protein stability index was 0.744 ± 0.045. ERSRRVSNIMVL showed a protein stability index of 0.48 ± 0.095. With ERSVTVKIRDLL the protein stability index was 0.6767 ± 0.0036. ERTSSSWPPPAV was tested, and the protein stability index was 0.72 ± 0.09. For ERVEETGREQPT, the protein stability index was 0.754 ± 0.037. Work on ESPTWVVLEGLG yielded a protein stability index of 0.6996 ± 0.0014. ESRGLVRRLGTG gave a protein stability index of 0.693 ± 0.058. In the case of ESRGVRAGTWQG, the protein stability index is reported as 0.694 ± 0.05. ESSTGYSPPLPV gave a protein stability index of 0.666 ± 0.047. In the case of ETNKEDKGKKSI, the protein stability index is reported as 0.6577 ± 0.0051. EVCAGNFVCSLG gave a protein stability index of 0.708 ± 0.015. Work on EVDRGSNWEGRL yielded a protein stability index of 0.66 ± 0.011.
